From patent publication US20210253718A1, “FRIZZLED5 PROTEIN-BINDING AGENTS” (Modmab Therapeutics Corporation, priority 2016, published 2021)

T1: FZD8 CRD (Homo sapiens, UniProt Q9H461)
T1 construct: K31-D155; GPI anchor signal (C); expressed in transfected cells; host or cells: CHO cells, lentiviral pLenti-puro
T1 sequence (Q9H461 31-155): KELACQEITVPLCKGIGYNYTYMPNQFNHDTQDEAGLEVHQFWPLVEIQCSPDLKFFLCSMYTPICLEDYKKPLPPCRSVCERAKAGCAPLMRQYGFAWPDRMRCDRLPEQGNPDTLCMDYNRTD

T2: FZD3 CRD (Homo sapiens, UniProt Q9NPG1)
T2 construct: CRD of FZD1, FZD2, FZD3, FZD4, FZD5, FZD6, FZD7, FZD8, FZD9 or FZD10; GPI anchor signal (C); expressed in transfected cells; host or cells: CHO cells, lentiviral pLenti-puro
T2 sequence (Q9NPG1 23-136 limits assumed): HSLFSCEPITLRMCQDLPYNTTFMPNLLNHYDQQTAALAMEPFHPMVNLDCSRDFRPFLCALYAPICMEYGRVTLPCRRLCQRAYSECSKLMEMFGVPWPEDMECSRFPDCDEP


Assays:
FZD1 CRD [1] = target: T3, FZD1 CRD (Homo sapiens, UniProt Q9UP38); assay: Flow cytometry of anti-FZD5 Fab binding to CHO cells overexpressing Frizzled CRD
T3 construct: D112-P238; GPI anchor signal (C); expressed in transfected cells; host or cells: CHO cells, lentiviral pLenti-puro
Experimental: (§1) Plasmids: pLCKO lentiviral vector used for knockout (TKO) library construction and expression of individual gRNAs was constructed as described previously (Hart et al., 2015). Briefly, single guide RNA (sgRNA) scaffold was amplified from px330 (Addgene 42230) and cloned into pLKO.TRC005 lentiviral vector (Broad Institute, Cambridge, Mass.) using AgeI/EcoRI restriction sites. BfuAI sites were added at the 5′ end of the sgRNA scaffold for cloning the TKO library or individual gRNA target sequences. Lenti Cas9-2A-BsdR vector used to generate Cas9 stable expression cell lines was constructed as described previously (Hart et al., 2015). Briefly, lentiCRISPR pXPR_001 (Addgene 49535) was modified through removal of the sgRNA scaffold region through NdeI/EcoRI digest and blunt ends generation using Large Klenow Fragment (NEB). 2A-puro was replaced with 2A-BsdR by PCR using the NheI/MluI sites. Each of the 10 human Frizzled cysteine rich domains (CRDs) were cloned into the lentiviral expression plasmid pLenti-puro in the following cassette: FZD_CRD-MYC-GPI.
(§2) Flow cytometry: Primary staining of cells was performed by treatment with 200 nM Frizzled profiler Fab. Alexa Fluor 488 AffiniPure F(ab′)2 was used as the secondary antibody (Jackson ImmunoResearch #109-546-097). c-Myc (9E10) IgG1 (primary antibody, Santa Cruz, lot #D0306) and Alexa Fluor 488 IgG (secondary antibody, Life technologies, lot #1458649) were used as controls. Dead cells were excluded by staining with Fixable Viability Dye eFluor 660 (eBioscience, catalogue number 65-0864). All reagents were used as per manufacturer's instructions. Flow cytometry was performed on a BD FACSCanto II flow cytometer (BD Biosciences), and data were analyzed with FlowJo software (FlowJo, LLC).
(§3) To confirm that the FZD5-WNT7B circuit is not driven simply by expression and rule out the possibility of a disconnect between RNA and protein levels for the Wnt receptors in HPAF-II cells, a panel of recombinant Fabs were generated, alternatively referred to herein as ‘Frizzled profiler’, that can detect and discriminate all but one of the ten Frizzled receptors. […] To characterize the binding specificity of these Fabs on cells, a panel of 10 CHO cell lines was generated, each expressing the CRD domain of a different myc-tagged Frizzled family member anchored at the plasma membrane through a GPI anchor (CHO-myc-FZDGPI). Despite the high sequence identity between Frizzled family members (FIG. 7A, FIG. 7B), selective Fabs were identified for FZD4, FZD5, FZD6 and FZD10 as assessed by immunofluorescence and flow cytometry (FIG. 7D and FIG. 8). […] The FZD8 CRD is most homologous to that of FZD5 (FIG. 7B). These Fabs can be used to discriminate expression of FZD1, FZD2, FZD4, FZD5, FZD6, FZD7, FZD8, FZD9 and FZD10 (FIG. 7D and FIG. 8). The ‘Frizzled profiler’ therefore consists of 10 different Fabs that can be used to discriminate expression of 9 different Frizzled family members. The Frizzled profiler was then used to confirm that HPAF-II cells express FZD1, FZD5, FZD6 and possibly FZD8 (FIG. 7E).
(§4) The binding of anti-FZD5 Fabs to cell surface-expressed Frizzled protein was further determined for each member of the Frizzled family via flow cytometry and immunofluorescence analysis of a panel of 10 CHO cell lines, each ectopically over-expressing the extracellular cysteine-rich domain (CRD) of a different Frizzled protein family member.

FZD2 CRD = target: T4, FZD2 CRD (Homo sapiens, UniProt Q14332); assay: as above
T4 construct: D35-P161; GPI anchor signal (C); expressed in transfected cells; host or cells: CHO cells, lentiviral pLenti-puro
Experimental: as §1, §2, §3, §4

PATU8988S cells = assay: Effect of anti-FZD5 Fabs on proliferation of pancreatic cancer cell lines (percent growth inhibition); format: cell-based, human; conditions: Fab 10 μg/ml
Experimental: (§5) The effect of presently disclosed anti-FZD5 Fabs on proliferation of RNF43 loss-of-function mutant pancreatic cancer cell lines HPAFII, PATU8988S and ASPC-1; and on pancreatic cancer cell line RWP1, was tested at […] and 10 μg/ml.

RWP1 cells = assay: as above; format: cell-based, human; conditions: Fab 10 μg/ml
Experimental: as §5

ASPC-1 cells = assay: as above; format: cell-based, human; conditions: Fab 10 μg/ml
Experimental: as §5

HPAFII cells = assay: as above; format: cell-based, human; conditions: for percent growth inhibition, HPAFII 2 μg/ml: Fab 2 μg/ml; for percent growth inhibition, HPAFII 10 μg/ml: Fab 10 μg/ml
Experimental: as §5

FZD8 CRD [2] = target: T1, FZD8 CRD; assay: Immunofluorescence of anti-FZD5 Fab binding to CHO cells overexpressing Frizzled CRD; design: key: −: no binding; +: very weak binder; ++: weak binder; +++: good binder; ++++: very good binder
Method in brief: (§6)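 CHO cell lines each displaying a myc-tagged Frizzled CRD on the plasma membrane via GPI anchor. Recombinant anti-FZD5 Fab binding detected by immunofluorescence and flow cytometry.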

FZD1 CRD [3] = target: T3, FZD1 CRD; assay: as above; design: key: −: no binding; +: very weak binder; ++: weak binder; +++: good binder; ++++: very good binder
Method in brief: as §6

FZD3 CRD = target: T2, FZD3 CRD; assay: as above; design: key: −: no binding; +: very weak binder; ++: weak binder; +++: good binder; ++++: very good binder
Method in brief: as §6

FZD7 CRD = target: T5, FZD7 CRD (Homo sapiens, UniProt O75084); assay: as above; design: key: −: no binding; +: very weak binder; ++: weak binder; +++: good binder; ++++: very good binder
T5 construct: D45-S169; GPI anchor signal (C); expressed in transfected cells; host or cells: CHO cells, lentiviral pLenti-puro
Method in brief: as §6

FZD8 CRD [4] = target: T1, FZD8 CRD; assay: Flow cytometry of anti-FZD5 Fab binding to CHO cells overexpressing Frizzled CRD
Experimental: as §1, §2, §3, §4

Molecule	Median fluorescence, Frizzled CRD overexpressed on CHO cells: FZD1 (FZD1 CRD [1])	Median fluorescence, Frizzled CRD overexpressed on CHO cells: FZD2 (FZD2 CRD)	percent growth inhibition, PATU8988s 10 μg/ml (PATU8988S cells) [%]	percent growth inhibition, RWP1 10 μg/ml (RWP1 cells) [%]	percent growth inhibition, ASPC-1 10 μg/ml (ASPC-1 cells) [%]	percent growth inhibition, HPAFII 2 μg/ml (HPAFII cells) [%]	percent growth inhibition, HPAFII 10 μg/ml (HPAFII cells) [%]	Immunofluorescence binding, Frizzled CRD overexpressed on CHO cells: FZD8 (FZD8 CRD [2])	Immunofluorescence binding, Frizzled CRD overexpressed on CHO cells: FZD1 (FZD1 CRD [3])	Immunofluorescence binding, Frizzled CRD overexpressed on CHO cells: FZD3 (FZD3 CRD)	Immunofluorescence binding, Frizzled CRD overexpressed on CHO cells: FZD7 (FZD7 CRD)	Median fluorescence, Frizzled CRD overexpressed on CHO cells: FZD8 (FZD8 CRD [4])
Fab-2900: anti-FZD5 Fab with antibody variable region Fv-2900; CDR SEQ ID NOs: 35, 36, 39, 78, 115, 153 (antibody, V domains shown) VH: EVQLVESGGGLVQPGGSLRLSCAASGFNLSSYYIHWVRQAPGKGLEWVASISSSSSSTSYADSVKGRFTISADTSKNTAYLQMNSLRAEDTAVYYCARGALDYWGQGTLVTVSS VL: DIQMTQSPSSLSASVGDRVTITCRASQSVSSAVAWYQQKPGKAPKLLIYSASSLYSGVPSRFSGSRSGTDFTLTISSLQPEDFATYYCQQWYSGSSLFTFGQGTKVEIK	31.06	6.15	−51.41	−29.81	−1.26	3.34	3.46	+	−	−	+	
Fab-2909: anti-FZD5 Fab with antibody variable region Fv-2909; CDR SEQ ID NOs: 35, 36, 48, 87, 124, 161 (antibody, V domains shown) VH: EVQLVESGGGLVQPGGSLRLSCAASGFNISSSYMHWVRQAPGKGLEWVASISSSSGYTSYADSVKGRFTISADTSKNTAYLQMNSLRAEDTAVYYCARTVRGSKKPYFSGWAMDYWGQGTLVTVSS VL: DIQMTQSPSSLSASVGDRVTITCRASQSVSSAVAWYQQKPGKAPKLLIYSASSLYSGVPSRFSGSRSGTDFTLTISSLQPEDFATYYCQQSWSYHYLITFGQGTKVEIK			−16.04	14.89	−9.30	2.87	−2.57	−	−	−	+	7.43
Fab-2929: anti-FZD5 Fab with antibody variable region Fv-2929; CDR SEQ ID NOs: 35, 36, 68, 106, 144, 162 (antibody, V domains shown) VH: EVQLVESGGGLVQPGGSLRLSCAASGFNISYYYIHWVRQAPGKGLEWVASIYPSSSSTSYADSVKGRFTISADTSKNTAYLQMNSLRAEDTAVYYCARGAMDYWGQGTLVTVSS VL: DIQMTQSPSSLSASVGDRVTITCRASQSVSSAVAWYQQKPGKAPKLLIYSASSLYSGVPSRFSGSRSGTDFTLTISSLQPEDFATYYCQQWYSSYGLITFGQGTKVEIK	7.64		−27.58	2.21	41.25	20.20	33.42	−	−	−	+	
